Experimental findings from the RNAGym collection of RNA variant scans (doi:10.7554/elife.80360) are described below.

Sequences and labels used below:
B1: CPEB3 Ribozyme (parent)
chain: GGGGGCCACAGCAGAAGCGUUCACGUCGCGGCCCCUGUCAGAUUCUGGUGAAUCUGCGAAUUCUGCUGU

The data set covers variants of B1. Kind of data set: self-cleavage, relative activity (ratio to wild type); higher = more cleavage; co-transcriptional.
As for G30C C34G, the self-cleavage amounted to 0.259.
In the case of G30C G56C it was 0.236; in that of G30C G56U, 0.404.
The value for G31C U38A was 0.237.
In the case of G30U G65A it was 0.203.
G30C A42U: the self-cleavage worked out at 0.41.
The value for G31C C34A was 0.341.
In the case of G31C U67C it was 0.358; in that of G30U A42G, 0.27.
The value for G30C U53A was 0.437; that for G31C A51C was 0.161; that for G31C A51U was 0.237.
Consider G31C A51G, for which the self-cleavage is 0.364.
In the case of G31A G41A it was 0.525.
In the case of G31C A59G it was 0.255; in that of G30C C35U, 0.398; in that of G30C C35A, 0.254.
On to G30U U61G, for which the self-cleavage was 0.215.
Consider G30U U61A, for which the self-cleavage amounted to 0.177.
In the case of G31A U55C it was 0.547; in that of G31A U55G, 0.569; in that of G31A U55A, 0.662.
Take G30A U55A: the self-cleavage turned out to be 0.638.
G30A U64G: the self-cleavage was found to be 0.624.
Take G30A U64A: the self-cleavage turned out to be 0.634.
In the case of G31A C39A it was 0.494; in that of G31A U67G, 1.01; in that of G31A A52U, 0.888.
Take G31A A52G: the self-cleavage is 0.907.
The value for G30A U67C was 0.959.
The value for G31C U53C was 0.237; that for G31C U53G was 0.139; that for G30C U46C was 0.613.
Take G30C U46A: the self-cleavage came to 0.706.
In the case of G30U G50U it was 0.47.
In the case of G30U G50A it was 0.335; in that of G30U G50C, 0.294.
In the case of G31A A60U, the self-cleavage worked out at 0.322.
In the case of G31A A60C it was 0.304; in that of G30C G50A, 0.621; in that of G30C G50C, 0.536.
In the case of G30C G50U, the self-cleavage was 0.679.
In the case of G31C C35G it was 0.141.
Take G30C U44C: the self-cleavage is 0.466.
Regarding G30C U44G, the self-cleavage amounted to 0.549.
For G30C U44A, the self-cleavage was 0.594.
Consider G30U U46G, for which the self-cleavage was 0.441.
On to G31A C32G, for which the self-cleavage came to 0.259.
As to G31A G48A, the self-cleavage came to 0.945.
In the case of G31A G48C it was 0.9; in that of G31C U69C, 0.451.
Regarding G31C U69A, the self-cleavage is 0.381.
Consider G30U C35U, for which the self-cleavage stood at 0.292.
The value for G31C U55G was 0.136; that for G31A C33G was 0.282; that for G30U G37U was 0.166.
In the case of G31A U69C it was 1.03; in that of G31A U69A, 0.991; in that of G30U U69C, 0.865.
In the case of G30U U69G it was 0.792; in that of G31U A40U, 0.352; in that of G30U G31U, 0.18.
On to G30U A52U, for which the self-cleavage was 0.342.
The value for G31C G65C was 0.185; that for G31C U62C was 0.258; that for G31C U62A was 0.151.
The value for G30C U62C was 0.424; that for G30U C34A was 0.259; that for G31C C54U was 0.308.
The value for G30C G31U was 0.224.
Turning to G30C G65A, the self-cleavage is 0.459.
In the case of G30C G65U, the self-cleavage was 0.371.
In the case of G30C U43A it was 0.438.
Turning to G31C C32G, the self-cleavage is 0.249.
In the case of G31A U38G it was 0.245.
As to G31A U38A, the self-cleavage was found to be 0.726.
Consider G31A C34U, for which the self-cleavage worked out at 0.605.
In the case of G31A C34G it was 0.262; in that of G30U A40C, 0.192.
In the case of G30U A40U it was 0.214; in that of G31C C33U, 0.45.
In the case of G30C U61A it was 0.258; in that of G30C U61C, 0.242.
On to G31A G58C, for which the self-cleavage worked out at 0.812.
In the case of G31A G58U it was 0.974; in that of G31C U44C, 0.27; in that of G30A U44G, 0.579.
As for G30C G48U, the self-cleavage is 0.706.
Take G30U A60G: the self-cleavage stood at 0.176.
The value for G31A U46G was 0.962; that for G31A U46C was 0.9; that for G31C U43A was 0.193.
The value for G30A U69G was 1.01.
Regarding G30C U64A, the self-cleavage stood at 0.467.
In the case of G30C U64G it was 0.455.
Regarding G30C U64C, the self-cleavage worked out at 0.478.
In the case of G31A C66A it was 0.7; in that of G31A C66U, 0.913; in that of G30U U67C, 0.624.
In the case of G30U U67G, the self-cleavage is 0.724.
In the case of G30U C57G it was 0.186; in that of G30U G56U, 0.231; in that of G31A A59G, 0.811.
In the case of G30A U49A it was 0.89.
The value for G30C C32G was 0.225; that for G30C C32U was 0.636; that for G30A U61G was 0.447.
In the case of G30A U61C, the self-cleavage came out at 0.39.
The value for G31C A42C was 0.227.
The value for G31A U53G was 0.573; that for G30C C45G was 0.578; that for G30U G47C was 0.395.
The value for G30U G47A was 0.436; that for G31A U61C was 0.327; that for G30C G37C was 0.204.
For the variant G30C G37A, the self-cleavage was 0.146.
The value for G30C G37U was 0.175; that for G31C A40C was 0.203; that for G31C A40U was 0.165.
In the case of G30C C54A it was 0.346; in that of G30C C63A, 0.292; in that of G30C A51U, 0.61.
With G30U U62A, the self-cleavage stood at 0.2.
With G31A C35A, the self-cleavage is 0.232.
In the case of G31A C35U it was 0.522; in that of G31A G37U, 0.213; in that of G30C G41U, 0.336.
In the case of G30C G41C, the self-cleavage is 0.232.
In the case of G30C U36C it was 0.273; in that of G31C G68A, 0.515.
The value for G31A A42C was 0.601.
G31C U64G: the self-cleavage is 0.251.
The value for G30A U46G was 0.888; that for G30U U64C was 0.353; that for G31C C57U was 0.184.
In the case of G31C C57A it was 0.163.
The value for G30C C57U was 0.244; that for G30C C57A was 0.302; that for G31A G65A was 0.711.
For G31A G65C, the self-cleavage turned out to be 0.539.
The value for G31A G65U was 0.594.
In the case of G30U G41C it was 0.209.
In the case of G30U C63U it was 0.279; in that of G30U G68U, 0.78; in that of G30U G68A, 0.88.
On to G31A C57G, for which the self-cleavage was determined as 0.254.
Regarding G31C G50A, the self-cleavage is 0.214.
Consider G31A G47A, for which the self-cleavage amounted to 0.897.
The value for G31A G47C was 0.921; that for G30A U62G was 0.413; that for G30A U62A was 0.445.
The value for G31A C63A was 0.32; that for G31C G41U was 0.217.
The value for G30U C45A was 0.335; that for G30U C45U was 0.329.
For G30C U67G, the self-cleavage came out at 0.94.
The value for G30C U67C was 0.883.
Take G30C A40U: the self-cleavage worked out at 0.296.
For G31C G58C, the self-cleavage is 0.179.
On to G31C G58U, for which the self-cleavage was 0.209.
Regarding G30C C33G, the self-cleavage was found to be 0.302.
As for G30C C33A, the self-cleavage came out at 0.248.
For G30U C32U, the self-cleavage was 0.181.
Regarding G30U C32G, the self-cleavage is 0.216.
The value for G31A U64A was 0.511; that for G31A U64C was 0.757; that for G30C C39G was 0.403.
